For 1 molecule, Kd results are on record in PMC12839305.

The assay deals with T1, RVFV glycoprotein Gn head domain (154–469 aa) (Rift Valley fever virus), P21401.
T1 chain: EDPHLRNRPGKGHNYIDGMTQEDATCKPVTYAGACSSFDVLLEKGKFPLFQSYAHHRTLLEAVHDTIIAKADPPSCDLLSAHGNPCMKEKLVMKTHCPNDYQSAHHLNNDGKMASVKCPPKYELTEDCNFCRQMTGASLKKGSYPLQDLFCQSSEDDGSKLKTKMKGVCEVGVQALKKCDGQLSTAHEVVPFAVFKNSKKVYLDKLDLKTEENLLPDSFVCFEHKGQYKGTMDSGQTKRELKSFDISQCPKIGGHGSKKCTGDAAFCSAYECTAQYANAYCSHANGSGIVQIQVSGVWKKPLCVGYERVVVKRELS
Put plainly: BLI. The settings on record: modification not given.

Consider HVCLPSQFKCTNTNRCIPGIFRCNGQDNCGDGEDERDCPE [23-Fc], for which the Kd stood at 260 nM.

What is called Kd is a measure of binding affinity in units of concentration.
